Data reported in PMC12700547, “Auranofin attenuates TOPBP1-mediated ATR replication stress response and improves chemotherapeutic response in breast tumor models” (The Journal of Clinical Investigation, 2025).
Each block holds one molecule with its values, some of them ahead of it. Where no end group is shown, it is not given here. [ ]: non-standard residue; d: D form. pT = C[C@@H](OP(=O)(O)O)[C@H](N)C(=O)O

How the values were obtained:
[1] = target: auranofin; assay: BLI; details: auranofin 25, 50, 100, 200 µM; n = 2; parent: 2.358E-5 M
[2] = target: T1, His-tagged recombinant TOPBP1 BRCT 7–8 (UniProt Q92547 1264-1493); assay: BLI; Octet RED96; biotin-peptides immobilized on biosensors; His-tagged BRCT 7–8 (1 μM) alone or preincubated with a serial dilution of compound (auranofin) as analyte; PBS with 0.1% BSA, 0.02% Tween-20, 1% DMSO; 2 minutes of dissociation; 1:1 binding model with local fit; details: both partners purified
T1 construct: The cited crystal structures 7CMZ and 3AL3 hold BRCT 7–8; also called BRCT 7–8/WT; His-tagged BRCT 7–8; source: E coli cells, purified
T1 sequence (Q92547 1264-1493): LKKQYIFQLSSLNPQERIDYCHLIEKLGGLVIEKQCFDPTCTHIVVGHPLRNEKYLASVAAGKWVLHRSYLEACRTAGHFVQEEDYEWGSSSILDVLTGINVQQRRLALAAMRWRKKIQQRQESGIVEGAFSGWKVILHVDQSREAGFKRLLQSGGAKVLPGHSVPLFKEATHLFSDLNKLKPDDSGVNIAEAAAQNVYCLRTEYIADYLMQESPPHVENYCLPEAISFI

Molecule: His-tagged recombinant TOPBP1 BRCT 7–8 (from UniProt Q92547) F1411A
Kd [1]: 4.22 mM

B1: biotin-pFANCJ peptide (phosphorylated Thr1133 containing peptide of FANCJ) (peptide)
peptide: EAEDESIYF[pT]PELYDPEDT
modifications: not fully specified (N-terminus); printed as EAEDESIYF(pT)PELYDPEDT; also: biotin (site not given here)
notes: also called phosphorylated FANCJ peptide
binding result [2]: binds

The remaining lines, values ahead:

binding result [2]: binds
B2: biotin-APS peptide (acidic patch sequence of PHF8) (peptide)
peptide: GACFKDAEYIYPSLESDDDDPA
modifications: not fully specified (N-terminus); also: biotin, position not given here
notes: also called PHF8/APS peptide

binding result [2]: binds
B3: biotin-F1071 peptide (F1071-containing peptide of the TOPBP1 AAD) (peptide)
peptide: TLEMRENFQKQLQEI
modifications: not fully specified (N-terminus); printed as TLEMRENF_1071_QKQLQEI; also: biotin, position not given here

binding result [2]: binds
B4: biotin-Y989 peptide (Y989-containing peptide of the TOPBP1 AAD) (peptide)
peptide: ECKHLPESLYPHTYN
modifications: not fully specified (N-terminus); printed as ECKHLPESLY_989_PHTYN; also: biotin, position not given here
